Positions count from the first letter of the chain named. Names may count otherwise.
B1: Fab VH5-51_IGHD5-18*01>3_IGHJ4*01 G100K/G104T G24T/S28R/G35V & V3-4_IGLJ1*01 V91L/S96P T53P (Fab, V domains shown)
VH: EVQLVQSGAEVKKPGESLKISCKTSGYRFTSYWIVWVRQMPGKGLEWMGIIYPGDSDTRYSPSFQGQVTISADKSISTAYLQWSSLKASDTAMYYCARRKYSYTYDYFDYWGQGTLVTVSS
VL: QTVVTQEPSFSVSPGGTVTLTCGLSSGSVSTSYYPSWYQQTPGQAPRTLIYSPNTRSSGVPDRFSGSILGNKAALTITGAQADDESDYYCLLYMGPGISYVFGTGTKVTVL
notes: Fab expressed in E. coli; heavy chain vector adds CH1 with His6 and Flag tags, light chain vector adds lambda CL; also called H:KT TRV & L:LP T53P
B2: Fab VH5-51_IGHD5-18*01>3_IGHJ4*01 G100K/G104T G24T/S28R/G35V & V3-4_IGLJ1*01 V91L/S96P T53V (Fab, V domains shown)
VH: B1 VH
VL: B1 VL with P53V
notes: Fab expressed in E. coli; heavy chain vector adds CH1 with His6 and Flag tags, light chain vector adds lambda CL; also called H:KT TRV & L:LP T53V
B3: Fab VH5-51_IGHD5-18*01>3_IGHJ4*01 G100K/G104T & V3-4_IGLJ1*01 V91E (Fab, V domains shown)
VH: B1 VH with T24G, R28S, V35G
VL: B1 VL with P53T, L91E, P96S
notes: Fab; expressed with CH1 (His and Flag tags) and lambda CL from the expression plasmids; also called H:KT & V91E
B4: Fab VH5-51_IGHD5-18*01>3_IGHJ4*01 G100K/G104T G24T/S28R/G35V & V3-4_IGLJ1*01 V91L/S96P T53Y (Fab, V domains shown)
VH: B1 VH
VL: B1 VL with P53Y
notes: Fab expressed in E. coli; heavy chain vector adds CH1 with His6 and Flag tags, light chain vector adds lambda CL; also called H:KT TRV & L:LP T53Y
B5: Fab VH5-51_IGHD5-18*01>3_IGHJ4*01 G100K/G104T & V3-4_IGLJ1*01 V91I (Fab, V domains shown)
VH: B1 VH with T24G, R28S, V35G
VL: B1 VL with P53T, L91I, P96S
notes: Fab; expressed with CH1 (His and Flag tags) and lambda CL from the expression plasmids; also called H:KT & V91I
B6: Fab VH5-51_IGHD5-18*01>3_IGHJ4*01 G100K/G104T & V3-4_IGLJ1*01 M94D (Fab, V domains shown)
VH: B1 VH with T24G, R28S, V35G
VL: B1 VL with P53T, L91V, M94D, P96S
notes: Fab; expressed with CH1 (His and Flag tags) and lambda CL from the expression plasmids; also called H:KT & M94D
B7: Fab VH5-51_IGHD5-18*01>3_IGHJ4*01 G100K/G104T & V3-4_IGLJ1*01 M94L (Fab, V domains shown)
VH: B1 VH with T24G, R28S, V35G
VL: B1 VL with P53T, L91V, M94L, P96S
notes: Fab; expressed with CH1 (His and Flag tags) and lambda CL from the expression plasmids; also called H:KT & M94L
B8: Fab VH5-51_IGHD5-18*01>3_IGHJ4*01 G100K/G104T & V3-4_IGLJ1*01 M94R (Fab, V domains shown)
VH: B1 VH with T24G, R28S, V35G
VL: B1 VL with P53T, L91V, M94R, P96S
notes: Fab; expressed with CH1 (His and Flag tags) and lambda CL from the expression plasmids; also called H:KT & M94R
B9: Fab VH5-51_IGHD5-18*01>3_IGHJ4*01 G100K/G104T G24T/S28R/G35V & V3-4_IGLJ1*01 V91L/S96P T53K (Fab, V domains shown)
VH: B1 VH
VL: B1 VL with P53K
notes: Fab expressed in E. coli; heavy chain vector adds CH1 with His6 and Flag tags, light chain vector adds lambda CL; also called H:KT TRV & L:LP T53K
B10: Fab VH5-51_IGHD5-18*01>3_IGHJ4*01 G100K/G104T & V3-4_IGLJ1*01 M94T (Fab, V domains shown)
VH: B1 VH with T24G, R28S, V35G
VL: B1 VL with P53T, L91V, M94T, P96S
notes: Fab; expressed with CH1 (His and Flag tags) and lambda CL from the expression plasmids; also called H:KT & M94T
B11: Fab VH5-51_IGHD5-18*01>3_IGHJ4*01 G100K/G104T G24T/S28R/G35V & V3-4_IGLJ1*01 V91L/S96P T53Q (Fab, V domains shown)
VH: B1 VH
VL: B1 VL with P53Q
notes: Fab expressed in E. coli; heavy chain vector adds CH1 with His6 and Flag tags, light chain vector adds lambda CL; also called H:KT TRV & L:LP T53Q
B12: Fab VH5-51_IGHD5-18*01>3_IGHJ4*01 G100K/G104T & V3-4_IGLJ1*01 M94V (Fab, V domains shown)
VH: B1 VH with T24G, R28S, V35G
VL: B1 VL with P53T, L91V, M94V, P96S
notes: Fab; expressed with CH1 (His and Flag tags) and lambda CL from the expression plasmids; also called H:KT & M94V
B13: Fab VH5-51_IGHD5-18*01>3_IGHJ4*01 G100K/G104T & V3-4_IGLJ1*01 V91C (Fab, V domains shown)
VH: B1 VH with T24G, R28S, V35G
VL: B1 VL with P53T, L91C, P96S
notes: Fab; expressed with CH1 (His and Flag tags) and lambda CL from the expression plasmids; also called H:KT & V91C
B14: Fab VH5-51_IGHD5-18*01>3_IGHJ4*01 G100K/G104T G24T/S28R/G35V & V3-4_IGLJ1*01 V91L/S96P T53N (Fab, V domains shown)
VH: B1 VH
VL: B1 VL with P53N
notes: Fab expressed in E. coli; heavy chain vector adds CH1 with His6 and Flag tags, light chain vector adds lambda CL; also called H:KT TRV & L:LP T53N
B15: Fab VH5-51_IGHD5-18*01>3_IGHJ4*01 G100K/G104T & V3-4_IGLJ1*01 M94E (Fab, V domains shown)
VH: B1 VH with T24G, R28S, V35G
VL: B1 VL with P53T, L91V, M94E, P96S
notes: Fab; expressed with CH1 (His and Flag tags) and lambda CL from the expression plasmids; also called H:KT & M94E
B16: Fab VH5-51_IGHD5-18*01>3_IGHJ4*01 G100K/G104T & V3-4_IGLJ1*01 M94F (Fab, V domains shown)
VH: B1 VH with T24G, R28S, V35G
VL: B1 VL with P53T, L91V, M94F, P96S
notes: Fab; expressed with CH1 (His and Flag tags) and lambda CL from the expression plasmids; also called H:KT & M94F
B17: Fab VH5-51_IGHD5-18*01>3_IGHJ4*01 G100K/G104T & V3-4_IGLJ1*01 M94P (Fab, V domains shown)
VH: B1 VH with T24G, R28S, V35G
VL: B1 VL with P53T, L91V, M94P, P96S
notes: Fab; expressed with CH1 (His and Flag tags) and lambda CL from the expression plasmids; also called H:KT & M94P
B18: Fab VH5-51_IGHD5-18*01>3_IGHJ4*01 G100K/G104T & V3-4_IGLJ1*01 M94N (Fab, V domains shown)
VH: B1 VH with T24G, R28S, V35G
VL: B1 VL with P53T, L91V, M94N, P96S
notes: Fab; expressed with CH1 (His and Flag tags) and lambda CL from the expression plasmids; also called H:KT & M94N
B19: Fab VH5-51_IGHD5-18*01>3_IGHJ4*01 G100K/G104T G24T/S28R/G35V & V3-4_IGLJ1*01 V91L/S96P T53S (Fab, V domains shown)
VH: B1 VH
VL: B1 VL with P53S
notes: Fab expressed in E. coli; heavy chain vector adds CH1 with His6 and Flag tags, light chain vector adds lambda CL; also called H:KT TRV & L:LP T53S

Experiments:
[1] = target: T1, Recombinant Human DLL4 (delta-like protein 4) (human, UniProt Q9NR61 27-524); experiment: ELISA, DLL4 coated on plate, Fab at 100 nM
T1 construct: also called rHuman DLL4; Delta-like 4

[2] = target: T2, Recombinant Human DLL4 (delta-like protein 4) (human, UniProt Q9NR61 27-524); experiment: ECL (MSD) binding assay, immobilised DLL4, 10 nM Fab;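 note: fab binding read as electrochemiluminescence via a TAG-labelled detection antibody, 1 h incubations at 20 °C, antigen signal compared with each well's blank, ratio of at least 4 scored as binder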
T2 construct: Bought recombinant human DLL4 (R&D Systems Cat#1506-D4/CF); also called rHuman DLL4

[3] = target: T2, Recombinant Human DLL4 (delta-like …); experiment: ELISA, DLL4-coated plate, 100 nM Fab

Binder | ELISA Signal-blank (100 nM Fab) [1] | ECL Signal [10 nM Fab] [2] | ELISA Signal [100 nM Fab] [3]
B1 | 0.39 |  | 
B2 | 0.29 |  | 
B3 |  | 22500 | 0
B4 | 0.22 |  | 
B5 |  | 51200 | 0.01
B6 |  | 52700 | 0.01
B7 |  | 46800 | 0.02
B8 |  | 77800 | 0.01
B9 | 0.12 |  | 
B10 |  | 43000 | 0.02
B11 | 0.11 |  | 
B12 |  | 47300 | 0.02
B13 |  | 38300 | 0.02
B14 | 0.15 |  | 
B15 |  | 32500 | 0.01
B16 |  | 26300 | 0.01
B17 |  | 39900 | 0.01
B18 |  | 51300 | 0.01
B19 | 0.18 |  | 

— patent publication US20120316071A1 (published 2012)
